The supplement of paper PMC10126150
± gives the standard deviation of the averaged measurements.

Tested on: ATP
Test: switch fluorescence ratio, 500 uM ATP over buffer (Cy3 cluster intensity, sum of 5 cycles each) (fold (ratio)); higher = stronger signal-on switching upon ATP binding; sequences stand for … in TCGTCGGCAGCGTCAGATGTGTATAAGAGACAGTTTTTTTTTTTTTTTTTTTTTTTTT…TC
Conditions: aptamer strand: ATP DNA aptamer (quencher-CACCTGGGGGAGTATTGCGGAGGAAGG + anchor), 100 nM annealed; ATP concentration: 500 uM
Method in brief: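 Per cluster, summed Cy3 intensity from the target cycles was divided by that from the buffer cycles to give the fluorescence ratio, then averaged per switch-domain sequence. Clusters outside 100-1000 RFU were excluded. The Cy3-labelled switching-strand clusters, on a modified Illumina MiSeq flow-cell, were annealed to 100 nM quencher-labelled ATP aptamer and imaged in selection buffer, then after 15 min with 500 uM ATP at 22 °C, for five cycles with NaOH stripping and re-annealing between them.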
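Note: ATP exposure 15 min at 22 °C before imaging.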

Sequence | switch fluorescence ratio
TGCGAGGCGT | 0.997 ± 0.021
TGCGAGGGTG | 1.02 ± 0.065
TGCGATACGG | 2.71 ± 0.12
TGCGATGAGG | 1.01 ± 0.046
TGCGCCGGGT | 1.12 ± 0.1
TGCGCGAAAT | 0.995 ± 0.0021
TGCGCGCTGG | 1 ± 0.041
TGCGCTATGT | 1.07 ± 0.022
TGCGCTTGTC | 0.974 ± 0.082
TGCGGAAAAC | 1.72 ± 0.82
TGCGGATATA | 1.04 ± 0.043
TGCGGGCCAT | 1.027 ± 0.0067
TGCGGGGAGG | 1.01 ± 0.0017
TGCGGGGCTT | 0.997 ± 0.048
TGCGGGGGAG | 0.996 ± 0.02
TGCGGGTCGG | 1.03 ± 0.031
TGCGGTAAGG | 1 ± 0.031
TGCGGTAATT | 1.14 ± 0.16
TGCGGTTGGG | 1.022 ± 0.003
TGCGTGAGGG | 1.04 ± 0.016
TGCGTGTGGT | 1.036 ± 0.0046
TGCGTGTGTC | 1.05 ± 0.024
TGCGTGTTGA | 1.04 ± 0.0081
TGCGTTACAG | 1.01 ± 0.044
TGCGTTAGCC | 1.035 ± 0.0025

Sequence | switch fluorescence ratio
TGCGTTGGAG | 1.08 ± 0.057
TGCGTTTATT | 0.994 ± 0.015
TGCGTTTCGA | 1.03 ± 0.025
TGCGTTTGTT | 0.996 ± 0.029
TGCTAGATAA | 1 ± 0.039
TGCTAGCATT | 1.11 ± 0.15
TGCTAGCTAT | 1.02 ± 0.0029
TGCTAGGGAA | 0.975 ± 0.015
TGCTAGGGAT | 1.01 ± 0.029
TGCTAGGGTA | 0.985 ± 0.012
TGCTAGGGTT | 1 ± 0.032
TGCTAGTTCT | 0.99 ± 0.016
TGCTATGGGC | 1.01 ± 0.017
TGCTATTGTG | 0.959 ± 0.02
TGCTATTTAC | 1.1 ± 0.069
TGCTCCTTAG | 1.07 ± 0.03
TGCTCGTATA | 0.9852 ± 0.0062
TGCTCGTGCT | 1.01 ± 0.028
TGCTCTAAGG | 1.02 ± 0.046
TGCTCTTTCA | 1 ± 0.025
TGCTGAAGGA | 0.9743 ± 0.0064
TGCTGCCGGT | 1.02 ± 0.096
TGCTGCGACG | 1.003 ± 0.0022
TGCTGCTACC | 1.07 ± 0.037
TGCTGGAGCT | 1.06 ± 0.022

Sequence | switch fluorescence ratio
TGCTGGGGGC | 0.971 ± 0.022
TGCTGGGGTA | 0.99 ± 0.024
TGCTGTAGGG | 0.966 ± 0.053
TGCTGTGGAA | 1.011 ± 0.0096
TGCTTGCAAA | 1.06 ± 0.069
TGCTTGGGGG | 0.979 ± 0.016
TGCTTGGGTC | 1.01 ± 0.028
TGCTTGTGTT | 0.9912 ± 0.0064
TGCTTGTTAC | 1.03 ± 0.018
TGCTTTAGGT | 0.9922 ± 0.0092
TGCTTTATAT | 1.18 ± 0.29
TGCTTTTGGG | 0.976 ± 0.0021
TGCTTTTTCA | 0.9895 ± 0.0042
TGGAAAGCCT | 1.05 ± 0.1
TGGAAAGTGG | 0.9818 ± 0.005
TGGAAAGTTT | 1 ± 0.052
TGGAAATACG | 1.06 ± 0.013
TGGAACGGAG | 0.98 ± 0.021
TGGAACGGTT | 1.04 ± 0.047
TGGAAGCGTT | 0.98 ± 0.041
TGGAATGCGC | 1.24 ± 0.36
TGGAATTAGC | 1.04 ± 0.054
TGGAATTGCC | 1.024 ± 0.0089
TGGAATTGGT | 1.02 ± 0.032
TGGAATTGTT | 1 ± 0.026

Sequence | switch fluorescence ratio
TGGACAATGG | 1.03 ± 0.051
TGGACCCGGC | 0.9858 ± 0.0054
TGGACGTGAT | 1.83 ± 1
TGGACTACGC | 1.06 ± 0.012
TGGACTAGGG | 0.975 ± 0.049
TGGACTGGGG | 0.9861 ± 0.0056
TGGACTTGGT | 0.97 ± 0.017
TGGAGAGGAT | 0.9825 ± 0.0026
TGGAGATTGT | 0.943 ± 0.032
TGGAGGAAGA | 1.04 ± 0.055
TGGAGGAGCG | 0.955 ± 0.036
TGGAGGGATG | 1.01 ± 0.054
TGGAGGGATT | 1.02 ± 0.013
TGGAGGGGGA | 0.999 ± 0.038
TGGAGGGTTG | 1 ± 0.026
TGGAGGGTTT | 1.07 ± 0.1
TGGAGGTGTT | 1.03 ± 0.035
TGGAGTAGAT | 0.986 ± 0.038
TGGAGTCAGG | 1.05 ± 0.049
TGGAGTGTGG | 0.912 ± 0.087
TGGATAAAGT | 0.985 ± 0.013
TGGATAAGCG | 1 ± 0.032
TGGATAAGTG | 0.998 ± 0.048
TGGATACCCT | 1.0117 ± 0.00031
TGGATATTTA | 0.978 ± 0.012
